Data as given in PMC11806106.

Legend:
[1] = target: MOR FRET sensor (rat MOR with sYFP2 inserted after G267, truncated after T370, mTurquoise2 at the C-terminus) (rat) (UniProt P33535)
[2] = target: MOR FRET sensor (rat MOR with sYFP2 inserted after G267, truncated after T370, mTurquoise2 at the C-terminus) (rat) (UniProt P33535); remark: listed apart in the source

T370 sequence (P33535 1-370): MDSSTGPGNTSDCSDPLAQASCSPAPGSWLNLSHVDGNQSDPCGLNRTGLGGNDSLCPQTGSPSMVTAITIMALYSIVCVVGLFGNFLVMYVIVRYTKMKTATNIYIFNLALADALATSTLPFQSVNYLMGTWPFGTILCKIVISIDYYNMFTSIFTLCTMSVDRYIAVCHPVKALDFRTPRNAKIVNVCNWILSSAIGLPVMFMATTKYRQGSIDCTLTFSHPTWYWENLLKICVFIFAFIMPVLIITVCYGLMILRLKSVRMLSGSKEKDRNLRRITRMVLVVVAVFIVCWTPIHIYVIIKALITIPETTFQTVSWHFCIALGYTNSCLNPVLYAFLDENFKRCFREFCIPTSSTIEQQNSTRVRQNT

## DAMGO (peptide)
[1]
  EC50 of the agonist-induced change of the FRET emission ratio of the MOR FRET conformation sensor (concentration-response, 96-well plate reader): 430 nM
[2]
  half-time of deactivation of the MOR FRET sensor after washout of 100 µM agonist (single-cell FRET): < 10 s
  on-rate Kon, calculated from the Koff of sensor deactivation and the EC50 (single-cell FRET, 100 µM agonist): 167000 M⁻¹ s⁻¹

## Met-enkephalin (peptide)
[2]
  half-time of deactivation of the MOR FRET sensor after washout of 100 µM agonist (single-cell FRET): < 10 s
